Consider two proteins from article PMC6850273, “Cyanophage MazG is a pyrophosphohydrolase but unable to hydrolyse magic spot nucleotides” (Environmental Microbiology Reports, 2019).

Common to all, as to experiment: PiPER pyrophosphate assay kit, released phosphate
Details in all cases: 1 μg purified protein; SE of three replicates

Substrate in series [1]: Nc1nc(O)nc2c1ncn2[C@H]1C[C@H](O)[C@@H](COP(=O)(O)OP(=O)(O)OP(=O)(O)O)O1
In kind it is biochemical, Synechococcus phage S-PM2. The text has this: (§1) PiPER pyrophosphate assay kit, released phosphate on cyanophage S-PM2 MazG (viral MazG)

Substrate in series [2]: Nc1ccn([C@@H]2O[C@H](COP(=O)(O)OP(=O)(O)OP(=O)(O)O)[C@@H](O)[C@H]2O)c(=O)n1
In kind it is biochemical, Synechococcus phage S-PM2.
Text: as §1

Substrate in series [3]: O=c1ccn([C@H]2C[C@H](O)[C@@H](COP(=O)(O)OP(=O)(O)OP(=O)(O)O)O2)c(=O)[nH]1
The class given is biochemical, Synechococcus phage S-PM2.
Text: as §1

Substrate in series [4]: Nc1ccn([C@H]2C[C@H](O)[C@@H](COP(=O)(O)OP(=O)(O)OP(=O)(O)O)O2)c(=O)n1
In kind it is biochemical, Synechococcus phage S-PM2.
Text: as §1

Substrate in series [5]: Cc1cn([C@H]2C[C@H](O)[C@@H](COP(=O)(O)OP(=O)(O)OP(=O)(O)O)O2)c(=O)[nH]c1=O
In kind it is biochemical, Synechococcus phage S-PM2.
Text: as §1

Substrate in series [6]: Nc1ncnc2c1ncn2[C@H]1C[C@H](O)[C@@H](COP(=O)(O)OP(=O)(O)OP(=O)(O)O)O1
In kind it is biochemical, Synechococcus phage S-PM2.
Text: as §1

Substrate in series [7]: O=c1ccn([C@@H]2O[C@H](COP(=O)(O)OP(=O)(O)OP(=O)(O)O)[C@@H](O)[C@H]2O)c(=O)[nH]1
In kind it is biochemical, Synechococcus phage S-PM2.
Text: as §1

Substrate in series [8]: Nc1ncnc2c1ncn2[C@@H]1O[C@H](COP(=O)(O)OP(=O)(O)OP(=O)(O)O)[C@@H](O)[C@H]1O
The class given is biochemical, Synechococcus phage S-PM2.
Text: as §1

Substrate in series [9]: Nc1nc2c(ncn2[C@H]2C[C@H](O)[C@@H](COP(=O)(O)OP(=O)(O)OP(=O)(O)O)O2)c(=O)[nH]1
In kind it is biochemical, Synechococcus phage S-PM2.
Text: as §1

Substrate in series [10]: Nc1nc2c(ncn2[C@@H]2O[C@H](COP(=O)(O)OP(=O)(O)OP(=O)(O)O)[C@@H](O)[C@H]2O)c(=O)[nH]1
The class given is biochemical, Synechococcus sp. WH 7803. The text has this:
(§2) PiPER pyrophosphate assay kit, released phosphate on Synechococcus sp. WH7803 'large' MazG (Syn MazG)

Substrate in series [11]: Nc1ccn([C@@H]2O[C@H](COP(=O)(O)OP(=O)(O)OP(=O)(O)O)[C@@H](O)[C@H]2O)c(=O)n1
In kind it is biochemical, Synechococcus sp. WH 7803.
Text: as §2

Substrate in series [12]: Nc1ccn([C@H]2C[C@H](O)[C@@H](COP(=O)(O)OP(=O)(O)OP(=O)(O)O)O2)c(=O)n1
In kind it is biochemical, Synechococcus sp. WH 7803.
Text: as §2

Substrate in series [13]: Nc1ncnc2c1ncn2[C@H]1C[C@H](O)[C@@H](COP(=O)(O)OP(=O)(O)OP(=O)(O)O)O1
The class given is biochemical, Synechococcus sp. WH 7803.
Text: as §2

Substrate in series [14]: O=c1ccn([C@@H]2O[C@H](COP(=O)(O)OP(=O)(O)OP(=O)(O)O)[C@@H](O)[C@H]2O)c(=O)[nH]1
In kind it is biochemical, Synechococcus sp. WH 7803.
Text: as §2

Substrate in series [15]: Nc1ncnc2c1ncn2[C@@H]1O[C@H](COP(=O)(O)OP(=O)(O)OP(=O)(O)O)[C@@H](O)[C@H]1O
The class given is biochemical, Synechococcus sp. WH 7803.
Text: as §2

Substrate in series [16]: Nc1nc2c(ncn2[C@H]2C[C@H](O)[C@@H](COP(=O)(O)OP(=O)(O)OP(=O)(O)O)O2)c(=O)[nH]1
In kind it is biochemical, Synechococcus sp. WH 7803.
Text: as §2

B1: cyanophage S-PM2 MazG (viral MazG) (Synechococcus phage S-PM2) (protein)
chain: MSKVNFERYQEFVSEVTSDASTNFVDFADRIGELDREGANIERLLTAGVGINAEGGEFLEIIKKMVFQGKPWNRDNREHLIIELGDIMWYVAQACIALGVSFDDVISGNVKKLEKRYPGGEFDVFYSENRSADDR
notes: recombinant, over-expressed in E. coli, purified by imidazole elution (tag details only in supplement); single MazG domain
Regarding B1, the Km in series [1] is 4.86 (±1.13) mM; in series [2], 0.85 (±0.11) mM; in series [3], 3.24 (±1.55) mM; in series [4], 1.16 (±0.04) mM; in series [5], 1.23 (±0.06) mM; in [6] it was 1.2 (±0.21) mM. The values for the Km in series [7], in [8] and in [9] were 0.6 (±0.37) mM, 1.43 (±0.36) mM and 0.14 (±0.01) mM, respectively. Also, the maximum rate (Vmax) in [1] amounted to 1.65 µmol/min/mg; in series [2] it was 2.51 µmol/min/mg; in series [3], 4.22 µmol/min/mg; in series [4], 8.86 µmol/min/mg; in series [5], 5.68 µmol/min/mg; in [6], 1.62 µmol/min/mg. For the same protein, the maximum rate (Vmax) in series [7] was found to be 3.31 µmol/min/mg; in [8], 2.28 µmol/min/mg; in [9], 10.3 µmol/min/mg. Also, the kcat was 1.93 ± 0.0658 s⁻¹ in series [1]; 1.62 ± 0.111 s⁻¹ in [2]; 4.94 ± 0.395 s⁻¹ in series [3]; 5.74 ± 0.129 s⁻¹ in series [4]; 3.68 ± 0.13 s⁻¹ in series [5]; 1.05 ± 0.124 s⁻¹ in series [6]. Also, the kcat was found to be 2.15 ± 0.119 s⁻¹ in [7], 1.48 ± 0.157 s⁻¹ in series [8] and 6.67 ± 0.165 s⁻¹ in series [9].

B2: Synechococcus sp. WH7803 'large' MazG (Syn MazG) (Synechococcus sp. WH 7803) (protein)
chain: MAQHATVPGDQDPLRYLESVVARLRDPVNGCPWDLEQTHASLVPYVLEEAHEVADAIRHGDDRHLKEELGDLLLQVVLHARIGAENNRFDLDAIATTISDKLIRRHPHVFGEARAENTEAVRLSWEAIKAAERAEQSGGEQSSSPLSDQLAGKVRGQPALAAAMTISRKAAKAGFEWDAIDGVWGKVQEELDELKEAIASGDRRHAQDELGDVLFTLVNVARWCGLDPEEGLAATNQRFLDRFSRVESALNGDLQGRSIQELEALWQQAKAAIRAENTQSS
notes: recombinant, over-expressed in E. coli and purified (tag details only in supplement); two MazG domains
For the protein B2, the Km is 0.26 (±0.02) mM in series [10]; 1.2 (±0.21) mM in series [11]; 0.14 (±0.03) mM in [12]; 0.3 (±0.09) mM in series [13]; 1.33 (±0.3) mM in [14]; 0.63 (±0.23) mM in series [15]. In addition, in series [16], the Km is reported as 0.85 (±0.07) mM. For the same protein, the maximal velocity (Vmax) in series [10] was 0.7 µmol/min/mg; in series [11] it was 1.96 µmol/min/mg; in series [12] it was 3.81 µmol/min/mg; in series [13], 1.8 µmol/min/mg; in series [14] it was 3.02 µmol/min/mg; in [15], 2.55 µmol/min/mg. For the same protein, in series [16], the Vmax turned out to be 0.64 µmol/min/mg. The turnover number (kcat) in series [10] is 0.824 ± 0.153 s⁻¹; in series [11] it was 2.3 ± 0.164 s⁻¹; in [12] it was 4.46 ± 0.417 s⁻¹; in series [13] it was 2.1 ± 0.323 s⁻¹; in [14] it was 3.68 ± 0.1 s⁻¹; in [15], 2.99 ± 0.407 s⁻¹. The kcat in series [16] was determined as 0.753 ± 0.293 s⁻¹.

Broadly, the Vmax is the top rate of the reaction or transport when substrate is in excess. In general, kcat refers to the number of substrate molecules converted per active site and unit of time at saturation.
